Assay results from article PMC9845754.

Molecular target: taxol-stabilized microtubules polymerized from porcine brain tubulin (porcine) (UniProt P02550)
Assay: co-sedimentation; 0, 1, 2, 4, 6, 8 or 10 µM ICR2-His6 added to taxol-stabilized microtubules (5 µM tubulin) in PEMT (100 mM PIPES, 1 mM EGTA, 1 mM MgCl2, 1 mM GTP, 20 µM taxol, pH 6.9); 100,000 g, 25°C, 15 min; SDS-PAGE, Coomassie, densitometry

ICR2-His6 (from UniProt Q9ZQC5 56-583) (natural protein)
stoichiometry N (mol ICR2-His6 per mole of tubulin): 0.85
